Values quoted from earlier work in patent US9340600B2 (Indiana University Research and Technology Corporation, priority 2012, dated 2016).

Target: T1, GIP receptor (Homo sapiens, UniProt P48546)
T1 construct: expressed in transfected cells; host or cells: HEK293
T1 sequence (P48546 22-466): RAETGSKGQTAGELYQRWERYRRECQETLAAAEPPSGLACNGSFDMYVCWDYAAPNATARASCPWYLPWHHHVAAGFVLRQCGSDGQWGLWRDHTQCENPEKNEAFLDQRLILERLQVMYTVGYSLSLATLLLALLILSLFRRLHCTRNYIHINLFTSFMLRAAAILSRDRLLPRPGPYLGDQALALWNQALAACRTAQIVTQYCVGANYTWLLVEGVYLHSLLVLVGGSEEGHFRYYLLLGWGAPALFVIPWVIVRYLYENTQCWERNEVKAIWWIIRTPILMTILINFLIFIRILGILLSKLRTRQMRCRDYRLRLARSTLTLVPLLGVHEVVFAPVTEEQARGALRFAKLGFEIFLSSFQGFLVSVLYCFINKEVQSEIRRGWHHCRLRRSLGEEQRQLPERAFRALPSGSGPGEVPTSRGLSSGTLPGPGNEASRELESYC
Details: cited from earlier work

Native glucagon: native human glucagon (SEQ ID NO: 1)
activation of the GIP receptor: does not activate the GIP receptor
activity of native GIP at the GIP receptor (relative to native GIP): ~0%
